Promoter activity of ABCA1-luc in transfected H2.35 hepatoma cells, luciferase activity of 4×LXRE-luc in transfected H2.35 hepatoma cells, with LXRα/RXR and LXR ligand and luciferase activity of the FAS promoter reporter (FAS-700 luc) in transfected H2.35 hepatoma cells data for two substances are collected here from patent US20080206232A1.

Assay [1] has as its target LXRα. The experiment in a line: cell-based or functional assay.
In assay [2] the target is SREBP1c. The experiment in a line: cell-based or functional assay.

Where only a bound is given, the exact number is not on record here.

With Flag-PGC-1α, the promoter activity of ABCA1-luc in transfected H2.35 hepatoma cells in assay [1] was 2 to 3 fold.
Regarding “Flag-PGC-1β (from UniProt Q8VHJ7 1-1014)”, in assay [1], the luciferase activity of 4×LXRE-luc in transfected H2.35 hepatoma cells, with LXRα/RXR and LXR ligand is more than 240 fold; the promoter activity of ABCA1-luc in transfected H2.35 hepatoma cells lay within 2 to 3 fold. Also, the luciferase activity of the FAS promoter reporter (FAS-700 luc) in transfected H2.35 hepatoma cells in assay [2] was found to be 17 fold.
